Data: patent US20220332769A1

Columns and labels:
Test in all cases: cell-based or functional assay
[1] = target: SARS CoV-1 spike on pseudotyped lentivirus (CoV-1 PVP) (SARS CoV-1) (UniProt P59594)
[2] = target: Spike protein of live SARS CoV-2 virus (original USA-WA1/2020 strain) (SARS CoV-2) (UniProt P0DTC2)
[3] = target: MERS spike on pseudotyped lentivirus (MERS-PVP) (MERS coronavirus) (UniProt K9N5Q8)

“ACE2-VGTM MVP (decoy multivalent particle displaying ACE2 fused with VSVG transmembrane domain)” showed an IC50, CoV-1 pseudovirus microneutralization assay, 293T/ACE2 target cells [1] of 0.13 pM, an IC50, CoV-1 pseudovirus neutralization assay, VERO-E6 target cells [1] of 0.44 pM and an IC50, live CoV-2 virus microneutralization assay [2] of 57 pM. It also gave an IC50, live virus PRNT assay, USA-WA1/2020 strain [2] of 0.98 pM and a reduction of viral titer, live CoV-2 virus microneutralization assay [2] of over 6 logs.

“HCΔ-DPP4 MVP (decoy multivalent particle displaying DPP4 extracellular domain fused to measles HCΔ18)” showed an IC50, MERS pseudovirus microneutralization assay, H1650 target cells [3] of 2.96 pM.

For “NA75-DPP4 MVP (DPP4 extracellular domain fused to influenza neuraminidase N-terminus and transmembrane regions) (from UniProt P27487 30-766)”, the IC50, MERS pseudovirus neutralization assay, H1650 target cells [3] was 0.87 pM.

Substance “Recombinant DPP4 protein (from UniProt P27487 39-766) (receptor)” has an IC50, MERS pseudovirus microneutralization assay, H1650 target cells [3] of over 48000 pM.
